Data as given in patent US20150064204A1 (Amgen, published 2015).
Positions count from the first letter of the chain named.

T1: cynomolgus monkey GITR (cynomolgus monkey, UniProt Q9Y5U5 26-241 (human entry))
T1 construct: also called cyno GITR
T1 chain: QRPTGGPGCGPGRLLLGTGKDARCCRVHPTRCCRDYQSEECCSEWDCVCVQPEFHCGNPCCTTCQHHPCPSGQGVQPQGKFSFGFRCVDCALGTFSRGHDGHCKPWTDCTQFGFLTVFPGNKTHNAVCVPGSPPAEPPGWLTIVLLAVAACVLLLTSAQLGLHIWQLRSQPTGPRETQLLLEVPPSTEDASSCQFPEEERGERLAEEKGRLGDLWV

T2: human GITR (human, UniProt Q9Y5U5 26-241)
T2 sequence: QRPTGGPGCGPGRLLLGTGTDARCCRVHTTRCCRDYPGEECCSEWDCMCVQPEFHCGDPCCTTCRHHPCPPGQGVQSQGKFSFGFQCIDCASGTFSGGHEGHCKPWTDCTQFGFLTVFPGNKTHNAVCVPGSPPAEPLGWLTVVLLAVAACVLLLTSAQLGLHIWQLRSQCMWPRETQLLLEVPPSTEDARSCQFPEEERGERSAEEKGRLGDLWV

T3: human GITR (Glucocorticoid-induced TNFR-related gene, TNFRSF18) (human, UniProt Q9Y5U5 26-241)
T3 sequence: T2 sequence

B1: 7A10v1 (antibody, human IgG1, kappa, V domains shown)
VH: QVQLVESGGGVVQPGRSLRLSCAASGFTFSSYGMHWVRQAPGKGLEWMAVIWYVGSNKYYADSVKGRFTISRDNSKNTLYLQMNSLRAEDTAVYYCARGGELGRDYYSGMDVWGQGTTVTVSS
VL: DIQMTQSPSSLSASVGDRVTITCRASQGIRNDLGWYQQKPGKAPKRLIYAASSLQSGVPSRFSGSGSGTEFTLTISSLQPEDFATYYCQQHNSYPWTFGQGTKVEIKR
notes: Engineered variant; also called Ab39; SS-13810
B2: 41G5v2 (antibody, human IgG1, kappa, V domains shown)
VH: B1 VH with M48V, V54P, D62E, D105Y, S108Y
VL: B1 VL with I21V, Q89L, S93N, E105D
notes: Engineered variant; also called Ab56; SS-13809
B3: 9H6v3 (antibody, human IgG1, kappa, V domains shown)
VH: B1 VH with A23V, V37I, M48V, V54E, D62E, E101R, R104K
VL: B1 VL with A51T, Q89L, S93T
notes: Engineered variant; also called Ab46; SS-13806
B4: 33C9v2 (antibody, human IgG1, kappa, V domains shown)
VH: B1 VH with L4V, M48V, A49S, V54E, D62E, E101L, R104Y, D105Y, S108Y
VL: B1 VL with A50D, Q89L, N92H
notes: Engineered variant; also called Ab51; SS-13808
B5: 5H7v2 (antibody, human IgG1, kappa, V domains shown)
VH: QVQLQESGPGLVKPSETLSLTCTVSGGSISSGGYFWSWIRQPPGKGLEWIGYIYYSGTTYYNPSLKSRVTISIDTSKNQFSLKLSSVTAADTAVYYCARDLFYYDTSGPRGFDPWGQGTLVTVSS
VL: EIVLTQSPGTLSLSPGERATLSCRASQTVSSNYLAWYQQKPGQAPRLLIYGSSTRATGIPDRFSGSGSGTDFTLTISRLEPEDFAVYYCQQYDSSPWTFGQGTKVEIKR
notes: Engineered variant; also called Ab26; SS-13807
B6: 44C1v1 (antibody, human IgG1, lambda, V domains shown)
VH: QVQLVESGGGVVQPGRSLRLSCAASGFTLSSYGMHWVRQAPGKGLEWVAVIWYDGSNKYYADSVKGRFTISRDNSKNTLYLQMNSLRAEDTAVYYCARRGTVTTPDFDYWGQGTLVTVSS
VL: QSALTQPASVSGSPGQSITISCTGTSSDVGTYNLVSWYQQHPGKAPKLMIYEVSKRPSGVSNRFSGSKSGNTASLTISGLQAEDEADYYCASYAGFSTWVFGGGTKLTVLG
notes: tied to 44C1v1 by Ab20 / SS-12514; also called Ab20; SS-12514
B7: 45A8v1 (antibody, human IgG1, lambda, V domains shown)
VH: QVQLVESGGGVVQPGRSLRLSCAASGFTFSSYGMHWVRQAPGKGLEWVAVIWHDGSNKYYADSVKGRFTISKDNSKNTLYLQMNSLRAEDTAVYYCAREYGGNFDYWGQGTLVTVSS
VL: B6 VL with V60I, F96Y, G111R
notes: tied to 45A8v1 by Ab21 / SS-12515; also called Ab21; SS-12515
B8: 49E2v1 (antibody, human IgG1, lambda, V domains shown)
VH: QVQLVESGGGVVQPGRSLRLSCAASGFTFSSYGMHWVRQAPGKGLEWVAVIWSDGNNKYYEDSVKGRFTISRDSSKNTLFLQMNSLRAEDTAVYYCARDTATPFDYWGQGTLVTVSS
VL: B6 VL with T31I, Y51H, F96I
notes: tied to 49E2v1 by Ab23 / SS-12516; also called Ab23; SS-12516
B9: 48A9v1 (antibody, human IgG1, kappa, V domains shown)
VH: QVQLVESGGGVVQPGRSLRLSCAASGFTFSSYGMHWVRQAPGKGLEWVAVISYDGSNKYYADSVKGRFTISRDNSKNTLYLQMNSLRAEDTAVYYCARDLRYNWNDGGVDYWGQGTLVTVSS
VL: DIQMTQSPSSLSASVGDRVIITCRASQSISSYLHWYKQKPGKAPKLLIYGASRLQSGVPSRFSGSGSGTDFTLTISSLQPEDFATYYCQQSSSTPLTFGGGTKVEIKR
notes: tied to 48A9v1 by Ab24 / SS-12513; also called Ab24; SS-12513
B10: 46E11 (antibody, human IgG1, kappa, V domains shown)
VH: QVQLVESGGGVVQPGRSLRLSCAASGFTFSSYGMHWVRQAPGKGLEWVAVIWYAGSNKYYADSVKGRFTISRDNSKNTLYLQMNSLRAEDTAVYYCARGDILTGYSLYYGMDVWGQGTTVTVSS
VL: B1 VL with T69A, Q89L
notes: Fully human parental antibody; also called Ab11; SS-12421
B11: 41E11 (antibody, human IgG1, kappa, V domains shown)
VH: B1 VH with L4V, H35Y, M48V, V54E, K65R, V93L, E101Q, R104K
VL: B1 VL with G28V, Q89L, W96L, Q100G
notes: Fully human parental antibody; also called Ab6; SS-12417
B12: 9H6 (antibody, human IgG1, kappa, V domains shown)
VH: B1 VH with A23V, V37I, M48V, V54E, E101R, R104K
VL: B1 VL with K45N, A51T, Q89L, S93T
notes: Fully human parental antibody; also called Ab19; SS-10945
B13: 42A11 (antibody, human IgG1, kappa, V domains shown)
VH: B1 VH with M48V, V54E, E101Q, R104Y, D105Y
VL: B1 VL with A50D, E70D, D82E, Q89L, S93N
notes: Fully human parental antibody; also called Ab8; SS-12418
B14: 48H12 (antibody, human IgG1, kappa, V domains shown)
VH: B1 VH with M48V, V54A, L79V, E101Q, G103A, R104L, D105Y, S108Y
VL: B1 VL with Q89L, S93N
notes: Fully human parental antibody; also called Ab12; SS-12422
B15: 48H7 (antibody, human IgG1, kappa, V domains shown)
VH: B1 VH with H35Y, M48V, V54E, Y95F
VL: B1 VL with G28V, Q89L, W96I, Q100G
notes: Fully human parental antibody; also called Ab13; SS-12423
B16: 49D9v1 (antibody, human IgG1, kappa, V domains shown)
VH: B1 VH with V2M, R16G, M48V, V54A, E101R, R104F, D105Y, S108Y
VL: B1 VL with Q89L, H91L
notes: tied to 49D9v1 by Ab22 / SS-12562; also called Ab22; SS-12562
B17: 5H7 (antibody, human IgG1, kappa, V domains shown)
VH: B5 VH with E16Q, P42H, Q79H, T106S
VL: B5 VL
notes: Fully human parental antibody; also called Ab17; SS-10943

Biological target: T1, cynomolgus monkey GITR
Experiment: flow cytometry, cyno T cell binding

Row | EC50 [ng/mL] | Binder
1 | 173 | B1
2 | 153 | B2
3 | 184 | B3
4 | 301 | B4
5 | 619 | B5

Biological target: T2, human GITR
Experiment: cell-based or functional assay

Row | Proliferation (Fold over CD3) [fold over CD3] | Proliferation EC50 [ng/mL] | Binder
6 | 3 | 3 | B1
7 | 3.5 | 3 | B2
8 | 3.7 | 6 | B3
9 | 2.9 | 7 | B4
10 | 3.2 | 11 | B5

Biological target: T2, human GITR
Experiment: flow cytometry on activated human T cells

Row | EC50 [ng/mL] | Binder
11 | 56 | B1
12 | 57 | B2
13 | 90 | B3
14 | 60 | B4
15 | 279 | B5

Biological target: T2, human GITR
Experiment: flow cytometry, human T cell binding

Row | EC50 [ng/mL] | Binder
16 | 27 | B1
17 | 33 | B2
18 | 26 | B3
19 | 35 | B4
20 | 164 | B5

Biological target: T3, human GITR (Glucocorticoid-induced …)
Experiment: cell-based or functional assay

Row | IFNg Secretion (Fold over CD3) [fold over CD3] | IFNg Secretion EC50 [ng/mL] | Binder
21 | 1.6 | 11.4 | B6
22 | 1.8 | 0.7 | B7
23 | 1.9 | 2.2 | B8
24 | 0.9 | 79.1 | B9
25 | 2.2 | 0.9 | B10
26 | 2 | 0.3 | B11
27 | 1.9 | 0.5 | B12
28 | 1.9 | 1.2 | B13
29 | 1.2 | 0.8 | B14
30 | 1.2 | 0.6 | B15
31 | 1.3 | 0.5 | B16
32 | 2.9 | 11.3 | B17

Biological target: T3, human GITR (Glucocorticoid-induced …)
Experiment: flow cytometry (MFI), antibody titration on anti-CD3-activated primary human T cells (CD25+CD4+)
Experimental: Cells were collected and washed and then incubated at 4 C with titrations of the anti-human GITR antibodies or a human IgG1 isotype control antibody. After washing, cells were stained at 4 C with fluorochrome conjugated anti-human CD4 and anti-human CD25 antibodies to identify activated CD4+ effector T cells and with fluorochrome-conjugated anti-huIgG to detect bound anti-human GITR antibodies. The mean fluorescence intensity (MFI) of the anti-human GITR antibodies bound to CD25+CD4+ cells was determined by flow cytometry. The EC50s of the binding curves were calculated using GraphPad Prism® software.

Row | EC50 [ng/mL] | Binder
33 | 802 | B6
34 | 102 | B7
35 | 318 | B8
36 | 145 | B9
37 | 30 | B10
38 | 48 | B11
39 | 26 | B12
40 | 51 | B13
41 | 48 | B14
42 | 45 | B15
43 | 51 | B16
44 | 164 | B17

Biological target: T1, cynomolgus monkey GITR
Experiment: cyno T cell binding EC50 against human T cell binding EC50

Row | Cyno:Hu Binding EC50 Ratio [ratio] | Binder
45 | 6.4 | B1
46 | 4.6 | B2
47 | 7.1 | B3
48 | 8.6 | B4
49 | 3.7 | B5

Biological target: T2, human GITR
Experiment: cell-based or functional assay
Remark: another data set of the same source

Row | Activation EC50 ng/mL (IFNg secretion) [ng/mL] | Proliferation (Fold over CD3) [fold over CD3] | Binder
50 | 0.32 | 3 | B1
51 | 0.64 | 3.5 | B2
52 | 0.06 | 3.7 | B3
53 | 0.86 | 2.9 | B4
54 | 1.6 | 3.2 | B5
